PMC12888917, “Structure-based engineering of the midnolin-proteasome pathway for targeted protein degradation” (Protein & Cell, 2025)

Biological target: T1, full-length RPN1 (UniProt Q13200 1-908)
T1 construct: RPN1, full length, as isolated protein in the BLI assay
Experiment: BLI; full-length RPN1 and GST-tagged midnolin C-Helix (375–413)
Settings: both partners purified

T1 sequence (Q13200 whole entry): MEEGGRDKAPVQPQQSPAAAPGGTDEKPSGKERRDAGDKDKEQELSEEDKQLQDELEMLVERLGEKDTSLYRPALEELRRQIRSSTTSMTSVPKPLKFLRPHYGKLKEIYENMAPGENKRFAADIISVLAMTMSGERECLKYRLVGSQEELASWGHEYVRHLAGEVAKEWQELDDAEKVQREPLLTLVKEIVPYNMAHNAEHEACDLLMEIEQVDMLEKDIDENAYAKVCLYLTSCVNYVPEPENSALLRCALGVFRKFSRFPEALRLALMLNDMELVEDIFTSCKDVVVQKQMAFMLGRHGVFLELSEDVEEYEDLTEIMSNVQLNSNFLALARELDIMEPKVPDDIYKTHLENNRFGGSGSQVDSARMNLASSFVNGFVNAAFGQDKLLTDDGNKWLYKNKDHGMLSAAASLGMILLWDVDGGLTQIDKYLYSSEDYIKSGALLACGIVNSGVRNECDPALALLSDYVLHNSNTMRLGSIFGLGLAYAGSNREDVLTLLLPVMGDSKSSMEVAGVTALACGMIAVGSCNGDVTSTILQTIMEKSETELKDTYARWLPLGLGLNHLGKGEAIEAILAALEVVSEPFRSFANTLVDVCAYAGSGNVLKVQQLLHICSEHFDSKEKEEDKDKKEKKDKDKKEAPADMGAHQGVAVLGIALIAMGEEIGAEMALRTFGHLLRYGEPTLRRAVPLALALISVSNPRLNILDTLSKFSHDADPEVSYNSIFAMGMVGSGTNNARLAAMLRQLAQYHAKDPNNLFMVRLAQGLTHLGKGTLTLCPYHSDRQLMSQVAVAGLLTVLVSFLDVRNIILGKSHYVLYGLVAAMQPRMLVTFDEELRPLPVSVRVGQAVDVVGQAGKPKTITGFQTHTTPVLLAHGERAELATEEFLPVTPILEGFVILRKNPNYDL

Kd: ~88.5 nM
Binder: PPGDRLRQTENRATRCKVERLQLLLQQKRLRRKARRDAR (domain or fragment, human, UniProt Q504T8 375-413, looked up, also called MIDN C-Helix) [GST-tagged midnolin C-Helix (375–413)]
